These results are taken from patent US20220396635A1 (UNIVERSIT T STUTTGART, published 2022).

Test [1] concerns the target T1, CEA (UniProt P06731 35-685).
T1 sequence (looked up): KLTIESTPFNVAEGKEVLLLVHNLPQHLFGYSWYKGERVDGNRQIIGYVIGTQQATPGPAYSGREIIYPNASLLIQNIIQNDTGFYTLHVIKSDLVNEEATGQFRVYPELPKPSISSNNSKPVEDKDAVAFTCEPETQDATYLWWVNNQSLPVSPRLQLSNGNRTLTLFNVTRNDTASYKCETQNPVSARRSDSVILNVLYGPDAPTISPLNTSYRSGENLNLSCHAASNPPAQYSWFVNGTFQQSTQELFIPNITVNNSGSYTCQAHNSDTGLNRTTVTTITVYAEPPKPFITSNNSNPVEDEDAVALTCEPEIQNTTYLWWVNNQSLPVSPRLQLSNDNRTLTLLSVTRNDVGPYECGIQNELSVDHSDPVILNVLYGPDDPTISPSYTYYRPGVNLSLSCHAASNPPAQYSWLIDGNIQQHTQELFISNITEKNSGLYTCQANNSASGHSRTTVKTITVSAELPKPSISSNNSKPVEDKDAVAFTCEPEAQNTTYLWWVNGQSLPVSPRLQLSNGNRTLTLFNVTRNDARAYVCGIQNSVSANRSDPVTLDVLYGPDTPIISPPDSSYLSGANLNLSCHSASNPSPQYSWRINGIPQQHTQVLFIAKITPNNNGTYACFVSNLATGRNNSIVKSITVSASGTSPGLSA
Description: cell-based or functional assay.

Test [2] deals with T1, CEA. The test can be described thus: flow cytometry, serial dilution on LIM1215 cells (CEA-expressing), PE anti-human Fc detection. The protocol: (§1) Binding of trivalent, bispecific fusion proteins to CEA-expressing (LIM1215) and CD3-expressing (Jurkat) cell lines was analyzed by flow cytometry. 2×10⁵ cells/well were incubated with a serial dilution of trivalent, bispecific antibodies for 1 h at 4° C. followed by detection using a PE-conjugated anti-human Fc antibody (Jackson ImmunoResearch Laboratories Inc). […] Regarding the CEA-expressing cell line LIM1215, the trivalent, bispecific antibodies bound with EC₅₀ values in the nanomolar range (FIG. 16A) (Table 9).
Background: Flow cytometry measures light scatter and fluorescence of single cells or particles in a stream.

Test [3] has as its target T2, CD3 (UniProt P07766 23-207).
T2 construct: whole, on cells; on cells it stands in the TCR/CD3 complex; also called CD3 on Jurkat cells
The test can be described thus: flow cytometry, serial dilution on Jurkat cells (CD3-expressing), PE anti-human Fc detection. The protocol: as §1

Test [4] concerns the target T1, CEA. The test can be described thus: cell-based or functional assay. The source holds these as a separate data set.
Test [5] has as its target T3, EGFR (UniProt P00533 25-1210, limits assumed).
T3 construct: whole, on cells; the cell lines are human tumor lines
Description: flow cytometry, serial dilution on SKBR-3 cells (EGFR-expressing), PE anti-human Fc detection. As for the experimental part:
(§2) Binding analysis of the trivalent, bispecific antibodies was performed by flow cytometry using tumor cell lines with different EGFR-expression levels (FIG. 20) (Table 12). Adherent cells were washed with PBS and shortly trypsinized at 37° C. Trypsin was quenched with FCS-containing medium and removed by centrifugation (500×g, 5 min.). Target cells (FaDu, LIM1215, SKBR-3, T-47-D, MCF-7 and Jurkat cells) at 1×10⁵ cells/well were incubated with a serial dilution of trivalent, bispecific antibodies for 1 h at 4° C. After removing excess of recombinant protein by washing with PBA (PBS, 2% FBS, and 0.02% sodium azide), bound protein was detected using PE-conjugated anti-human Fc mAb (Jackson ImmunoResearch Laboratories Inc). Fluorescence was measured using MACSquant VYB (Miltenyi Biotec) and data were analyzed using FlowJo (Tree Star). Relative median fluorescence intensities (MFI) were calculated as followed: relative MFI=((MFIₛₐₘₚₗₑ-(MFIdetection-MFIcells))/MFIcells).

Test [6] addresses T2, CD3. Description: flow cytometry, serial dilution on Jurkat cells (CD3-expressing), PE anti-human Fc detection. As for the experimental part: as §2
The source holds these as a separate data set.

Test [7] deals with T3, EGFR. Description: flow cytometry, serial dilution on LIM1215 cells (EGFR-expressing), PE anti-human Fc detection. The protocol:
as §2

The target in test [8] is T3, EGFR. The test can be described thus: flow cytometry, serial dilution on FaDu cells (EGFR-expressing), PE anti-human Fc detection. As for the experimental part:
as §2

Test [9] concerns the target T3, EGFR. The test can be described thus: cell-based or functional assay.
Test [10] concerns the target T3, EGFR. The test can be described thus: flow cytometry, serial dilution on MCF-7 cells (EGFR-expressing), PE anti-human Fc detection. The protocol: as §2
The target of test [11] is T3, EGFR. Description: flow cytometry, serial dilution on T-47-D cells (EGFR-expressing), PE anti-human Fc detection. As for the experimental part:
as §2

For orientation: EC50 means the concentration needed to bring the measured effect to its halfway point. Lower therefore signals higher potency in that assay.

Like-named read-outs stand apart in the source and are kept apart here.

B1: scDb/Fab-Fc (2-1)+1, trivalent bispecific anti-CEAxanti-CD3 (bispecific antibody, human IgG1, kappa)
chain: QVQLVQSGAEVKKPGSSVKVSCKASGGTFSGYTMNWVRQAPGQGLEWMGLINPYKGVSTYNGKFKDRVTITADKSTSTAYMELSSLRSEDTAVYYCARSGYYGDSDWYFDVWGQGTLVTVSSGGGGSDIELTQSPAIMSASPGEKVTITCSASSSVSYMHWFQQKPGTSPKLWIYSTSNLASGVPARFSGSGSGTSYSLTISRMEAEDAATYYCQQRSSYPLTFGAGTKLELKRGGGGSGGGGSGGGGSQVKLQQSGAELVRSGTSVKLSCTASGFNIKDSYMHWLRQGPEQGLEWIGWIDPENGDTEYAPKFQGKATFTTDTSSNTAYLQLSSLTSEDTAVYYCNEGTPTGPYYFDYWGQGTTVTVSSGGGGSDIQMTQSPSSLSASVGDRVTITCRASQDIRNYLNWYQQKPGKAPKLLIYYTSRLHSGVPSRFSGSGSGTDFTFTISSLQPEDIATYYCQQGNTLPWTFGQGTKLEIKRAAADKTHTCPPCPAPPVAGPSVFLFPPKPKDTLMISRTPEVTCVVVDVSHEDPEVKFNWYVDGVEVHNAKTKPREEQYNSTYRVVSVLTVLHQDWLNGKEYKCKVSNKGLPSSIEKTISKAKGQPREPQVCTLPPSRDELTKNQVSLSCAVKGFYPSDIAVEWESNGQPENNYKTTPPVLDSDGSFFLVSKLTVDKSRWQQGNVFSCSVMHEALHNHYTQKSLSLSPGK
heavy: QVKLQQSGAELVRSGTSVKLSCTASGFNIKDSYMHWLRQGPEQGLEWIGWIDPENGDTEYAPKFQGKATFTTDTSSNTAYLQLSSLTSEDTAVYYCNEGTPTGPYYFDYWGQGTTVTVSSASTKGPSVFPLAPSSKSTSGGTAALGCLVKDYFPEPVTVSWNSGALTSGVHTFPAVLQSSGLYSLSSVVTVPSSSLGTQTYICNVNHKPSNTKVDKKVEPKSCDKTHTCPPCPAPPVAGPSVFLFPPKPKDTLMISRTPEVTCVVVDVSHEDPEVKFNWYVDGVEVHNAKTKPREEQYNSTYRVVSVLTVLHQDWLNGKEYKCKVSNKGLPSSIEKTISKAKGQPREPQVYTLPPCRDELTKNQVSLWCLVKGFYPSDIAVEWESNGQPENNYKTTPPVLDSDGSFFLYSKLTVDKSRWQQGNVFSCSVMHEALHNHYTQKSLSLSPGK
light: DIELTQSPAIMSASPGEKVTITCSASSSVSYMHWFQQKPGTSPKLWIYSTSNLASGVPARFSGSGSGTSYSLTISRMEAEDAATYYCQQRSSYPLTFGAGTKLELKRRTVAAPSVFIFPPSDEQLKSGTASVVCLLNNFYPREAKVQWKVDNALQSGNSQESVTEQDSKDSTYSLSSTLTLSKADYEKHKVYACEVTHQGLSSPVTKSFNRGEC
notes: also called scDbhuU3xCEA-Fc(hole)Δab + VHCEA-CH1-Fc(knob)Δab + VLCEA-CLκ
Take B1: in test [1], the “EC50 of IL-2 release, PBMCs co-cultured with LIM1215 cells” value was 3.5 nM. Moreover, the concentration giving a half-maximal response (EC50) in test [2] was 2.1 nM; in test [3], 6.1 nM. Moreover, the “EC50 of PBMC cytotoxicity on LIM1215 cells, E:T 10:1” value in test [4] was found to be 1.2 nM.

B2: scDb/scFv-Fc (1-2)+1, trivalent bispecific anti-EGFRxanti-CD3 (bispecific antibody)
chain 1: EVQLVESGGGLVQPGGSLRLSCAASGFSLTNYGVHWVRQAPGKGLEWLGVIWSGGNTDYNTPFTSRFTISRDNSKNTLYLQMNSLRAEDTAVYYCARALTYYDYEFAYWGQGTTVTVSSGGGGSDIQMTQSPSSLSASVGDRVTITCRASQDIRNYLNWYQQKPGKAPKLLIYYTSRLHSGVPSRFSGSGSGTDFTFTISSLQPEDIATYYCQQGNTLPWTFGQGTKLEIKRGGGGSGGGGSGGGGSQVQLVQSGAEVKKPGSSVKVSCKASGGTFSGYTMNWVRQAPGQGLEWMGLINPYKGVSTYNGKFKDRVTITADKSTSTAYMELSSLRSEDTAVYYCARSGYYGDSDWYFDVWGQGTLVTVSSGGGGSDIQLTQSPSFLSASVGDRVTITCRASQSIGTNIHWYQQKPGKAPKLLIKYASESISGVPSRFSGSGSGTEFTLTISSLQPEDFATYYCQQNNNWPTTFGAGTKLEIKRAAADKTHTCPPCPAPPVAGPSVFLFPPKPKDTLMISRTPEVTCVVVDVSHEDPEVKFNWYVDGVEVHNAKTKPREEQYNSTYRVVSVLTVLHQDWLNGKEYKCKVSNKGLPSSIEKTISKAKGQPREPQVCTLPPSRDELTKNQVSLSCAVKGFYPSDIAVEWESNGQPENNYKTTPPVLDSDGSFFLVSKLTVDKSRWQQGNVFSCSVMHEALHNHYTQKSLSLSPGK
chain 2: EVQLVESGGGLVQPGGSLRLSCAASGFSLTNYGVHWVRQAPGKGLEWLGVIWSGGNTDYNTPFTSRFTISRDNSKNTLYLQMNSLRAEDTAVYYCARALTYYDYEFAYWGQGTTVTVSSGGGGSGGGGSGGGGSDIQLTQSPSFLSASVGDRVTITCRASQSIGTNIHWYQQKPGKAPKLLIKYASESISGVPSRFSGSGSGTEFTLTISSLQPEDFATYYCQQNNNWPTTFGAGTKLEIKRAAADKTHTCPPCPAPPVAGPSVFLFPPKPKDTLMISRTPEVTCVVVDVSHEDPEVKFNWYVDGVEVHNAKTKPREEQYNSTYRVVSVLTVLHQDWLNGKEYKCKVSNKGLPSSIEKTISKAKGQPREPQVYTLPPCRDELTKNQVSLWCLVKGFYPSDIAVEWESNGQPENNYKTTPPVLDSDGSFFLYSKLTVDKSRWQQGNVFSCSVMHEALHNHYTQKSLSLSPGK
notes: also called scDbhu225xhuU3-Fc(hole)Δab + scFvhu225-Fc(knob)Δab
Take B2: the EC50 in test [5] stood at 0.09 nM; in test [6], 9.6 nM; in test [7] it was 0.2 nM; in test [8] it was 1.1 nM; in [10] it was 0.03 nM; in test [11], 0.02 nM. In addition, the “EC50 of PBMC cytotoxicity on FaDu cells, E:T 5:1” value in [9] was found to be 0.026 nM. Besides, the “EC50 of PBMC cytotoxicity on SKBR-3 cells, E:T 5:1” value in test [9] came to 0.126 nM.

B3: scDb/Fab-Fc (1-2)+1, trivalent bispecific anti-EGFRxanti-CD3 (bispecific antibody)
chain: B2 chain 1
heavy: EVQLVESGGGLVQPGGSLRLSCAASGFSLTNYGVHWVRQAPGKGLEWLGVIWSGGNTDYNTPFTSRFTISRDNSKNTLYLQMNSLRAEDTAVYYCARALTYYDYEFAYWGQGTTVTVSSASTKGPSVFPLAPSSKSTSGGTAALGCLVKDYFPEPVTVSWNSGALTSGVHTFPAVLQSSGLYSLSSVVTVPSSSLGTQTYICNVNHKPSNTKVDKKVEPKSCGTDKTHTCPPCPAPPVAGPSVFLFPPKPKDTLMISRTPEVTCVVVDVSHEDPEVKFNWYVDGVEVHNAKTKPREEQYNSTYRVVSVLTVLHQDWLNGKEYKCKVSNKGLPSSIEKTISKAKGQPREPQVYTLPPCRDELTKNQVSLWCLVKGFYPSDIAVEWESNGQPENNYKTTPPVLDSDGSFFLYSKLTVDKSRWQQGNVFSCSVMHEALHNHYTQKSLSLSPGK
light: DIQLTQSPSFLSASVGDRVTITCRASQSIGTNIHWYQQKPGKAPKLLIKYASESISGVPSRFSGSGSGTEFTLTISSLQPEDFATYYCQQNNNWPTTFGAGTKLEIKRTVAAPSVFIFPPSDEQLKSGTASVVCLLNNFYPREAKVQWKVDNALQSGNSQESVTEQDSKDSTYSLSSTLTLSKADYEKHKVYACEVTHQGLSSPVTKSFNRGEC
notes: also called scDbhu225xhuU3-Fc(hole)Δab + Fdhu225-Fc(knob)Δab + VLhu225-CLκ
In the case of B3, the EC50 in [5] turned out to be 0.1 nM; in test [6], 1 nM; in test [7] it was 0.2 nM; in test [8] it was 0.2 nM; in test [10] it was 0.04 nM; in test [11] it was 0.03 nM. The “EC50 of PBMC cytotoxicity on FaDu cells, E:T 5:1” value in test [9] stood at 0.05 nM. In addition, the “EC50 of PBMC cytotoxicity on SKBR-3 cells, E:T 5:1” value in test [9] was 0.209 nM.
